Test results published in the DeepSol protein solubility set.

Test: soluble on expression in E. coli; label from the status in PepcDB or PDB records

| Sequence | soluble on expression in E. coli |
| --- | --- |
| SSPSSPADWAKKLTDAVLRQKAGETLTAADRDFSNADFRNITFSKILPPSFMERDGDIIKGFNFSNSKFTYSDISHLHFDECRFTYSTLSDVVCSNTKFSNSDMNEVFLQYSITTQQQPSFIDTTLKNTLIRHKANLSGVILNEPDNSSPPSVSGGGNFIRLGDIWLQMPLLWTENAVDGFLNHEHNNGKSILMTIDSLPDKYSQEKVQAMEDLVKSLRGGRLTEACIRPVESSLVSVLAHPPYTQSALISEWLGPVQERFFAHQCQTYNDVPLPAPDTYYQQRILPVLLDSFDRNSAAMTTHSGLFNQVILHCMTGVDCTDGTRQKAAALYEQYLAHPAVSPHIHNGLFGNYDGSPDWTTRAADNFLLLSSQDSDTAMMLSTDTLLTMLNPTPDTAWDNFYLLRAGENVSTAQISPVELFRHDFPVFLAAFNQQATQRRFGELIDIILSTEEHGELNQQFLAATNQKHSTVKLIDDASVSRLATIFDPLLPEGKLSPAHYQHILSAYHLTDATPQKQAETLFCLSTAFARYSSSAIFGTEHDSPPALRGYAEALMQKAWELSPAIFPSSEQFTEWSDRFHGLHGAFTCTSVVADSMQRHARKYFPSVLSSILPLAWA | soluble |
| GMSEPVFPTPEAAEDAFYAAFEARSLDDMMAVWARDDHVACIHPLAAPLNGRAAVAAGWRSMFGAAGRFRLQVKAVHEIRQADHVIRIVDEFLTIGDETAPRPAILATNVYRREADGWRMVLHHASPLQVGAKAGADTPPVVFH | soluble |
| MVEKPKDIKIAQESFPILVAENIYHCGYHSEKSYGAASYLIQHSQGNILVDSPRFTPPLVKRIEAMGGIKYMYLTHQDDVADHQKFAEHFQCQRILHTDEISAGTRNVEIQLTGLEPFPLQPDVLIIPVPGHTKGHTVLLYKNKFLFTGDHLAWSENRHQLTAFRDVCWYSWAEQIKSMRRLADYSFDWVLPGHGRRFHADVETMRQQMHKCIELMTDERQPLTFNSLEHHHHHH | soluble |
| GSDARSRGRVPGYASSSLYRESGIISARQLALLQRMLPRLRLEQLFRCEWLQQRLARGLALGREEVRQILLCAAQDDDGWCSELGDRVNLAVPQSMIDWVLLPVYGWWESLLDQAIPGWRLSLVELETQSRQLRVKSEFWSRVAELEPEQAREELARVAKCQARTQEQVAELAGKLETASALAKSAWPNWQRGMATLLASGGLAGFEPIPEVLECLWQPLCRLDDDVGAADAVQAWLHERNLCQAQDHFYWQS | not soluble |
| MGSSHHHHHHSSGLVPRGSHMASKSFQLLEPYNIKANLRPYQIKGFSWMRFMNKLGFGICLADDMGLGKTLQTIAVFSDAKKENELTPSLVICPLSVLKNWEEELSKFAPHLRFAVFHEDRSKIKLEDYDIILTTYAVLLRDTRLKEVEWKYIVIDEAQNIKNPQTKIFKAVKELKSKYRIALTGTPIENKVDDLWSIMTFLNPGLLGSYSEFKSKFATPIKKGDNMAKEELKAIISPFILRRTKYDKAIINDLPDKIETNVYCNLTPEQAAMYKAEVENLFNNIDSVTGIKRKGMILSTLLKLKQIVDHPALLKGGEQSVRRSGKMIRTMEIIEEALDEGDKIAIFTQFVDMGKIIRNIIEKELNTEVPFLYGELSKKERDDIISKFQNNPSVKFIVLSVKAGGFGINLTSANRVIHFDRWWNPAVEDQATDRVYRIGQTRNVIVHKLISVGTLEEKIDQLLAFKRSLFKDIISSGDSWITELSTEELRKVIELSVGGY | soluble |
| FQGNPCECPRALHRVCGSDGNTYSNPCMLTCAKHEGNPDLVQVHEGPCDEHDHDF | soluble |
| QTVARKCSLTGEWDNDLGSIMTIGAVNDNGEFDGTYITAVADNPGNITLSPLLGIQHKRASQPTFGFTVHWNFSESTSVFVGQCFVDRSGKEVLKTKWLQRLAVDDISDDWIATRVGNNDFTRQHTVEE | soluble |
| MFGNLGQAKKYLGQAAKMLIGIPDYDNYVEHMKTNHPDKPYMSYEEFFRERQNARYGGDGKGGMRCC | soluble |
| MGSDKIHHHHHHMEMESPVRILFVIDQFSSPYAGTEGQLLQLISNLPADRFDPELLVLRSSDYVNEGNIPCKVHVLGSSKLFSMKTWLALFQFARRQKQAGTALCHVFFNDSSVLCPPVFGLVGIPTLISRRDMGYWYTRKYLWVLRRTAGFVRGVVANSEAVKRITVQKEGFSDADVSVIYNGYPEGDEELHPLIGEERQRYVETLGLPKSGRFVVLVANLRDIKRIGDAISAMARLTQTLPDTHLVLIGAGDQKPYRMLAEAVGNAGQVHFLGARSDVNNILRVMDVGLLCSESEGYSNAIVEYMQAKLPVVASDVGGNSEAVEHGVTGFLFPMGDVDQMAEQLATVLKGESRAVASMGEAGYKRAGHRHALHTMIEAHCGLYDRLLSGSDYSRSGLGVR | not soluble |
| MSLSTGTMTLHRRLQVEYGLYQDRGRRPTMEDAHTVVSSLPIPQLEEQDEGNTTVSLFAIMDGHCGDSASYYSAAQLASKVSECWPCCMTTSSIVSSLHNAHILMDAQFLEIARSSNILAGCTCLSTVIVTEAHRIRIFTANLGDSRAILCRHGAFSAWLKFSPPSAAAEANANRLNLISFFPGSRLVIPLSLDQKPNISPDRERIEAAGAFTYPSLIKYKDKIAIRGPHRIFPGGLAVPRAIGDLPYKDMTYLNSLGVSAPLVSSDPVISIYDLTEQDEFILQACDGLWDVISSKEAAIFASVMHYIHQLARMPHKAFKKLRRPLKQILFKMGVTSYYSPTSVAVAEALCNHAKLRGSQDNVTVSVIFPEFIKSEGHHHHHH | not soluble |
| MGSDKIHHHHHHMDIGDKGEMLSLLKALVNIDSGSYYKEGVDRVGRMLTNAFKQIGFKVAIFKQERYGDHLLFTHPHAFDPKILLVAHMDTVFPVGTAAARPFQLIGTRAYGPGVIDMKGSLVACLYAIKALVGAQSPAVKQVAVLMTSDEEIGAPSGREIIEKIGVGKKAVLVMEPARKDGSLVTARRGGGRYTLNVTGRAAHSGVEPEKGRSAIEELAHKIMKLHALSDYKSGISVNVGVIEGGTAVNTVADRAKAKVDIRISRLEQAEPLDRDIRRICGTPDVDGTTIELKGGITRPPMERNAQTVALFQLIQQVASTIGLELTETATGGSSDASFTSALGIPTIDGMGPVGGFPHSEKEYLRVDTMQERTLLLAKVIERLSE | not soluble |
| MDKKPSKKKVAIIGGGVAGSTIAMYLSKFDIEIDLFEQGTSLVNGPPICHLHAGGNLYREISDEQCIALLTESIQTAQFFPHSLNIRPTIIAVPKDDRAEASDLLPRLNLLQKHYLELIEQSKKNEVFGRPEDYFTTFTKQELFEIAKLEPTNQPRSMTEWMIPFAKTTDLEQIKYPVVIVQEYGLSVFRMASTAQLVLSEQSNVNLHLSCRVEKLNKQDNGNWFLSFSNSDTVTSCNFDYVINCAGFRTGIIDDLAQQQTKRLVEFKAAYVTHWNSDFFGKWPEVIFHGERGTPKGMAQLTPYPNGYFQLHGMTEEITLFKDGLSRSSELSSQPQLPEKFINKITNGWKESIQQERTEKAIKHLSQFISSFETASTAGKPLYGAQQIPGDDITLRAATINYDGHGYFRAEIVKASSAIECAKQIAQTIKLSTEINTLTQPSNDDVCHLAEQFAIERGYPVELAQTYLEHHHHHH | not soluble |
| MGSDKIHHHHHHMALIITKKAADLPKPKKPVIGLALGSGAAKGWAHIGVLNGLAKLGIFPDKVAGCSVGALVGAAYANDNLDEIEKWVRGFSSWDVLGLMDIRWRKGGIINGEKVFEVLSSRVGALKIEQLKRAFAAVATDLYSGQEIWFREGDLRHAVRASCSMPGFLPPVQQDDRWLVDGAVVNPVPVSLCRAMGVDLVIAVDLNGHRRGQMMMLPEQVVSHQAEKSQTVTEKPQLESGFMDLWGKSKEYLSGLTEKFSLGVNSHPGMLAVMSQSMDILEQRHKRARLMGDPPDICIVPQVFDIGTMEFHRAAEAIAAGEQAVENISHLLKASIGDFDSAPQR | not soluble |
| MLRVLSRQAFSMVRAANFSASASSAGGGGLSDEVRKRIDGIVKKDDVVVFMKGTQQEPACGFSRNVKLVLDFHNVKFQDYNVLTDQELREGVKIFSEWPTIPQVYVKGEFVGGCDILISMHKDGEISDFLDEKGISNKYGKQ | not soluble |
| MSLEKKDNVFTFGNALSLYYKDYETPLIINTDDINQFKRSDKFYVLGNEFNAEIKYPYFMSSLYCIESGDIVMVYNAVELIQRPRLIIKALMALRKKYGFSKLIYLPGIGDPYIIPVLVYAGADLFDDTYIKEESINNIKYTMMGKTKSSDNNINDNLKFANDIISLLRSSIKTGTLREFVEKFQYSSRAIEMLRIIDNDYFSDYSMVFPVYTPYIKANTIESLNRPDIVSYRNYIKNDYSKPDVENLLILPCSAKKPYSKSKSHKKILSRIEKYRKYIHELIVTSPVGLVPRELESMYPAAFYDIPVIGLWYEDEKKMINDLLKSYLSKNRYKNIIAYIDEDLNFIKSSGNIILIEGNILSEEKLSELESTLRDLTINSPKMDHLFNYKSMLSYQFGTWIKDYLDDIKISRSYNMDMVTRNGRALFVFNEKLGRFTINRNGAGIFLNAGKKIVYIDDFKPTSYVFNAGIKDATDDIKPGDEVIIVHNNEIRGVGTALISYRAMIDLDHGAGVKVREGHHHHHH | soluble |
| MGHHHHHHSHELIREVEMGPFKHTVDDGLDIRKAAFECMYTLLDSCLDRLDIFEFLNHVEDGLKDHYDIKMLTFLMLVRLSTLCPSAVLQRLDRLVEPLRATCTTKVKANSVKQEFEKQDELKRSAMRAVAALLTIPEAEKSPLMSEFQSQISSNPELAAIFESIQKDSSSTNLESMDTS | not soluble |
| GIDPFTKMGGDRRPITILTSDLRGFTSTSEGLNPEEVVKVLNIYFGKMADVITHHGGTIDEFMGDGILVLFGAPTSQQDDALRAVACGVEMQLALREVNQQVTGLGLQPLEMGIGINTGEVVVGNIGSEKRTKYGVVGAQVNLTYRIESYTTGGQIFISSTTLEAAGDRVHVNGNRTVQPKGVKDPVVIWDVAGVGEPYNLSLAVEEQ | soluble |
| MGSDKIHHHHHHMTAQSSHMLVLQSTVTSAFKTIASEKQGLEALEEALLGYLSSAFQAAVQTIRNANGHVVITGLGKSGHIGAKIAATLASTGTPAFFVHAAEANHGDLGMIGSDDVILALSWSGETSELSGIINHAARFRTPLIAMTSGEHSVLGRQADIVLLLPKIEEACPHGLAPTTSTIMQLAMGDALAVALLEMRGFTATDFKIYHPGGSLGASLKYVRDIMHQGESIPLVAQGTAMAKAMSVLVEKHFGCVGVVNQEGELIGIVTDGDLARNIHVNLSKFNVDELMTKDPKIVEPNTLVGAATAFINEHHIGAFFVVENKKPIGIVHFHDLLRIGAA | not soluble |
| MRHYKTLRYYETVFAVKPTLSEEEMKKKFEQVKEFIKQKGGEILYEEDWGMRQLAYPIQKFNNARYFLVQFKTENPQLPNELDFQLKIDEDVIRWLNIQIKESEVKKNAQ | soluble |
| MSGTASKGSSSDSASEKTEMRTYKSPKGNVNIPAHPKRIVTDFYAGELLSVGANVVGSGSWSFDNPFLKSKLKNVKDVGDPISVEKVMELQPDLIVVMNEENVDKLKKIAPTVVIPYNTAKNVEDTVSMFGDIAGAKDQAKSFMADFNKKAEAAKKKIAGVIDKDATFGIYENTDKGEFWVFNDNGGRGGQAVYNALGLKAPEKIEQDVIKKGEMKQLSQEVIPEYAADYMFITDYNPKGESKTLDKLENSSIWKNLDAVKHNRVFINDFDSFYPYDPISVSKQVDIITDMLIKRAEENLEHHHHHH | soluble |
| AESLPDLKIEKLDEGVYVHTSFEEVNGWGVVPKHGLVVLVNAEAYLIDTPFTAKDTEKLVTWFVERGYKIKGSISSHFHSASTGGIEWLNSRSIPTYASELTNELLKKDGKVQATNSFSGVNYWLVKNKIEVFYPGPGHTPDNVVVWLPERKILFGGCFIKPYGLGNLGDANIEAWPKSAKLLKSKYGKAKLVVPSHSEVGDASLLKLTLEQAVKGLNESKKPSKPSN | soluble |
